The series concerns MS2 coat protein. The experiment in a line: apparent KD of MS2 coat protein; designed switch direction (-1 OFF switch, 1 ON switch): -1; higher = weaker reporter binding. The essentials: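 Each step of the titration lasted 0.8–1.5 h at the lowest concentration and 10–20 min at the highest. The protein, SNAP-549-labelled MS2 coat protein, went from 0.7 or 1.5 nM doubling to 3 µM over RNA switches transcribed on Illumina chips by stalled E. coli RNA polymerase. Normalised cluster fluorescence was curve-fitted, and the per-design median over clusters is given as apparent KD.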

[1] abbreviates: Eterna round: R95, input ligand: microRNA oligo, concentration not stated.
The mark [2] stands for this setting: input ligand: microRNA oligo, concentration not stated.
[3] abbreviates: Eterna round: R95, input ligand: FMN 200 uM.
Setting [4] is: Eterna round: R95, input ligand: none.

Consider “ACUAGAUGAGGAUAUGCACAUUUUAGUGUUCCUCUAGAUUAACAUGAGGAUCACCCAUGUAGAAGGCGUCAUUA [Exclusion 2 - 14] (puzzle: Exclusion 2)”, for which, under setting [1], the “apparent KD of MS2 coat protein” value was 49.9 nM.
In the case of “ACUCACGCAGGAUAUACAUGAGGAUCACCCAUGUUCGAAGGGCGUGGGCACAAAGUCUGUAGAAGGGCGAAAAU [Zave] (Eterna round: R97, puzzle: Exclusion 3)”, the “apparent KD of MS2 coat protein” value (input ligand: FMN 200 uM) stood at 19.2 nM and the “apparent KD of MS2 coat protein” value (input ligand: none) came out at 16.3 nM.
For the sequence “ACUCACUCGCGAGGAUAUGGACAAAUAUAAACGCUAGAAGGCGCGACAUGAGGAUCACCCAUGUACUCACUCACUCACUCACAU [my 1st design ever] (Eterna round: R96, puzzle: Exclusion NG 1)”, the “apparent KD of MS2 coat protein” value is 62.6 nM (input ligand: FMN 200 uM), 27.5 nM under setting [2] and 41.9 nM (input ligand: none).
“ACUCAGUGAGGAUAUCGCCAAAGAGCCGUAACGGCCUUUGAUGAGAAGGCACAUGAGGAUCACCCAUGUAAGCA [EX4 C.1] (Eterna round: R97, puzzle: Exclusion 4)”: the “apparent KD of MS2 coat protein” value (input ligand: FMN 200 uM) amounted to 387 nM and the “apparent KD of MS2 coat protein” value (input ligand: none) turned out to be 122 nM.
Turning to “ACUCCAUAUGUGAGGAUAUGGAAAGAAAAUAAAAUCCAGAAGGCACAUGAGGAUCACCCAUGUACCGCAGGGAC [BmEX4 A.29] (Eterna round: R97, puzzle: Brourd's mod of Exclusion 4)”, the “apparent KD of MS2 coat protein” value came to 17.7 nM (input ligand: FMN 200 uM) and 14.5 nM (input ligand: none).
In the same order, the values of “ACUGGAGCAGGAUAUGCAUUCGUGCUUCGGCACGUAAGGUCACAUGAGGAUCACCCAUGUAGAAGGGCUCCAGU [E2/6-D1] (Eterna round: R97, puzzle: Exclusion 2)” are 32.9 nM and 19.7 nM.
For the sequence “ACUGGUCGAGGAUAUACAUGAGGAUCACCCAUGUUGAUCAACUGCCGAUAGGCAGAAUGUAGAAGGCGACCAGU [E3/7-A2] (Eterna round: R97, puzzle: Exclusion 3)”, the “apparent KD of MS2 coat protein” value is, setting by setting: (input ligand: FMN 200 uM) 119 nM; (input ligand: none) 942 nM.
Take “ACUGUGUAAGGAUAUGUGAUACACUGCUAUUUAGGUGAGUCACAGAAGGUACAUGAGGAUCACCCAUGUCCGGG [Eternabot (L2) Solution 32] (Eterna round: R97, puzzle: Exclusion 4)”: the “apparent KD of MS2 coat protein” value worked out at 222 nM (input ligand: FMN 200 uM) and 172 nM (input ligand: none).
On to “ACUUACUGAGGAUAUACAUAGAUUUACAUGAGGAUCACCCAUGUUCCUCUAAGUAUAUAUGUAGAAGGCAGAAGGU [Mat - Exclusion 5 - JL Mod - D42] (Eterna round: R97, puzzle: Exclusion 5)”, for which the “apparent KD of MS2 coat protein” value is, setting by setting: (input ligand: FMN 200 uM) 177 nM; (input ligand: none) 214 nM.
On to “ACUUAUAGAGGAUAUACAGAUUAUUACAUGAGGAUCACCCAUGUUCUUCAAUGUAUAUAUGUAGAAGGCUAAGGAU [Mat - Exclusion 5 - JL Mod - D8] (Eterna round: R97, puzzle: Exclusion 5)”, for which the “apparent KD of MS2 coat protein” value stood at 192 nM (input ligand: FMN 200 uM) and 75.9 nM (input ligand: none).
As to “ACUUCACAUGAGGAUCACCCAUGUGAGGAUAUCGUCGAGGAUGUAAUGCCAUCCGUGGCGAGAAGGCGCAUGGG [Exclusion 1 (Mod1.1 solution 40 by Eternabot)] (Eterna round: R97, puzzle: Exclusion 1)”, the “apparent KD of MS2 coat protein” value runs as follows: (input ligand: FMN 200 uM) 28.5 nM; (input ligand: none) 79.8 nM.
With “ACUUGCUAUUUGCUCGUCUUAUUUUUGUUUAUUUACUAUACAUGAGGAUCACCCAUGUUAUAUUUAAGGGUGUGAUA [JR_SV3TOV2_Sub074] (puzzle: Sensor v3, turn-off variant 2)”, the “apparent KD of MS2 coat protein” value runs as follows: under setting [3], 270 nM; under setting [1], 334 nM; under setting [4], 259 nM.
On to “ACUUGUAGAGGAUAUACGAGGGCCCAAGCGGCGAGAGCCGCACAUGAGGAUCACCCAUGUAGAAGGCUACUAUU [JL-ex2-4.25 ViennaUCT mod] (Eterna round: R97, puzzle: Exclusion 2)”, for which the “apparent KD of MS2 coat protein” value stood at 374 nM (input ligand: FMN 200 uM) and 116 nM (input ligand: none).
Turning to “ACUUGUUGUCCUUGAUAUUACAUGAGGAUCACCCAUGUUAUUGUGAUUUUGAUGUGUAAGUUUGUUGCUCGUCUUAU [JR_STOV1_Sub064] (Eterna round: R97, puzzle: Sensor, turn-off variant 1)”, the “apparent KD of MS2 coat protein” value turned out to be 70.2 nM (input ligand: FMN 200 uM) and 71.5 nM (input ligand: none).
As to “ACUUGUUGUCCUUGAUUUUACAUGAGGAUCACCCAUGUUAUUUUGAUUAUGAUGUGUAAGUUUGUUGCUCGUUUUAU [JR_STOV1_Sub067] (Eterna round: R97, puzzle: Sensor, turn-off variant 1)”, the “apparent KD of MS2 coat protein” value is, setting by setting: (input ligand: FMN 200 uM) 61.9 nM; (input ligand: none) 67.4 nM.
With “AGAAAACGAGGAUAUACGUGCAUAUUCUCGCCCAAUGGGCAACAUGAGGAUCACCCAUGUAGAAGGCGUAAAGA [Dienoror] (puzzle: Exclusion 2)”, the “apparent KD of MS2 coat protein” value under setting [1] was 34.6 nM.
In the case of “AGAAAUGCCCAUGGCCACAAGCUUUUUGCUUGUCUUACUACAUGAGGAUCACCCAUGUACCAUGGGCUCCUGAUAAU [Anxemaes] (puzzle: Sensor v3, turn-off variant 2)”, the “apparent KD of MS2 coat protein” value runs as follows: under setting [3], 13.8 nM; under setting [1], 9.75 nM; under setting [4], 10.4 nM.
On to “AGAAAUGCCCAUGGCCGCAAGCUUUUUGCUUGUCUUACCACAUGAGGAUCACCCAUGUGACAUGGGCUCCUGAUAAU [Bivequ] (puzzle: Sensor v3, turn-off variant 2)”, for which the “apparent KD of MS2 coat protein” value runs as follows: under setting [3], 13.7 nM; under setting [1], 10.7 nM; under setting [4], 12.1 nM.
For “AGAAGUAGUAACCGAUCCUACAUGAGGAUCACCCAUGUAGCAAGACGUGCACGCGAAGCUCGUCAGACUACCAGAUG [salish99_TOv1_r3_020] (puzzle: Sensor v3, turn-off variant 1)”, the “apparent KD of MS2 coat protein” value is, setting by setting: under setting [3], 159 nM; under setting [1], 252 nM; under setting [4], 242 nM.
Consider “AGAAGUGCCGAGGAUAUCCAGGCAAUCUCGUUCGGAGAAGGCGGCACUUGAGGAUCACCCAAGUGCUCCAAAAG [Essoatxe] (Eterna round: R97, puzzle: Exclusion 6)”, for which the “apparent KD of MS2 coat protein” value runs as follows: (input ligand: FMN 200 uM) 59.2 nM; (input ligand: none) 18.9 nM.
In the case of “AGACAGUCAGGAUAUACAUGAGGAUCACCCAUGUUGAGAAGAGAAAGGGCAGGAAGAGGUAGAAGGGACAAGAA [JR_Exclu3_Sub034] (puzzle: Exclusion 3)”, the “apparent KD of MS2 coat protein” value by setting is: under setting [3], 21.3 nM; under setting [1], 25.7 nM; under setting [4], 29.3 nM.
As for “AGAGAAUAGGUAGGAUAUCUUAAUAGAAAGAAUAGAGAAGGACCACAUGAGGAUCACCCAUGUGAUGUCUUGAGACUACAUGGU [Prohibition 32 - Jieux - Exclusion NG 1] (Eterna round: R96, puzzle: Exclusion NG 1)”, the “apparent KD of MS2 coat protein” value under setting [2] was determined as 13.3 nM.
Regarding “AGAGAAUAGUCAGGAUAUCUUAAUAGAAAGAAUAGAGAAGGGACACAUGAGGAUCACCCAUGUGAAGUCUUGAGACUACAUGGU [Prohibition 30 - Jieux - Exclusion NG 1] (Eterna round: R96, puzzle: Exclusion NG 1)”, the “apparent KD of MS2 coat protein” value (input ligand: FMN 200 uM) came out at 108 nM, the “apparent KD of MS2 coat protein” value under setting [2] is 27.4 nM and the “apparent KD of MS2 coat protein” value (input ligand: none) turned out to be 35.3 nM.
As for “AGAGAGUCAGGAUAUCGAAGGUAGAGAAAAGGAGAGAGGUACGAGAAGGGACAUGAGGAUCACCCAUGUAGGUG [JR_Exclusion4)Sub014] (puzzle: Exclusion 4)”, the “apparent KD of MS2 coat protein” value worked out at 526 nM under setting [3], 286 nM under setting [1] and 381 nM under setting [4].
On to “AGAGAGUCAGGAUAUCGAAGGUAGAGAAAAGGAGAGUGGUACGAGAAGGGACAUGAGGAUCACCCAUGUAGGUG [JR_Exclusion4)Sub013] (puzzle: Exclusion 4)”, for which the “apparent KD of MS2 coat protein” value was found to be 343 nM under setting [3], 431 nM under setting [1] and 441 nM under setting [4].
For “AGAGCACAUGAGGAUCACCCAUGUCAGGAUAUCGACUGAACAGCUUCGGCUGUUCAGUCGAGAAGGGACAAUUA [Brourdxlusion 7 - Jieux - Exclusion 1] (Eterna round: R97, puzzle: Exclusion 1)”, the “apparent KD of MS2 coat protein” value runs as follows: (input ligand: FMN 200 uM) 19.4 nM; (input ligand: none) 35 nM.
For the sequence “AGAGGACAUGAGGAUCACCCAUGUAAGGAUAUGCGGAGAGUUUGGAGAGGUCGGGUAGGCAGAAGGUACAGGAG [JR_Exclu1_Sub050] (Eterna round: R96, puzzle: Exclusion 1)”, the “apparent KD of MS2 coat protein” value turned out to be 48 nM (input ligand: FMN 200 uM), 41 nM under setting [2] and 86.4 nM (input ligand: none).
On to “AGAGGACAUGAGGAUCACCCAUGUAAGGAUAUGCGGAGAGUUUGGAGAGGUCGGGUAGGCAGAAGGUACAGGAG [JR_Exclu1_Sub050] (puzzle: Exclusion 1)”, for which the “apparent KD of MS2 coat protein” value reads like this: under setting [3], 82.2 nM; under setting [1], 92.5 nM; under setting [4], 89.4 nM.
For “AGAGUACAUGAGGAUCACCCAUGUUAGGAUAUGCAUAAUAAGAAGAAGAGAAGAGAGAGCAGAAGGAACAAGAG [Ex 1 M1] (puzzle: Exclusion 1)”, the “apparent KD of MS2 coat protein” value runs as follows: under setting [3], 42.5 nM; under setting [1], 48 nM; under setting [4], 57.8 nM.
With “AGAGUGUGAGGAUAUACAUGAGGAUCACCCAUGUAAUAACAGGUUACGGGCGGCACCAGUAGAAGGCACUUGUC [Eternabot (L2) Solution 22] (Eterna round: R97, puzzle: Exclusion 3)”, the “apparent KD of MS2 coat protein” value came to 42 nM (input ligand: FMN 200 uM) and 28.2 nM (input ligand: none).
As to “AGAUCACAUGAGGAUCACCCAUGUCAGGAUAUCAUCAUUGAAGCUUCGGCUUCAAUGAUGAGAAGGGACAUAAU [E1/2-B1] (Eterna round: R97, puzzle: Exclusion 1)”, the “apparent KD of MS2 coat protein” value amounted to 297 nM (input ligand: FMN 200 uM) and 598 nM (input ligand: none).

Source of the values: the supplement of paper PMC9170038.
